# Test system: Escherichia coli TOP10
# Experiment: shrunken log2 fold change of peptide-encoding DNA abundance (4.5 h post-induction vs induction); higher = less antimicrobial activity (less host growth inhibition)
# Conditions: time post-induction: 4.5 h; library: site-saturation at positions 5, 18, 19, 20
# 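Also: peptides expressed intracellularly from a pBAD plasmid library in pooled LB shake-flask culture, induced with 0.3% L-arabinose, DNA abundance read by NGS, three biological replicates, DESeq2 with apeglm shrinkage.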
row,Sequence,shrunken log2 fold change
1,RRIRPRPPRLPRPRPRPQCEPRP,-0.0437
2,RRIRCRPPRLPRPRPRPRCTPRP,-0.00347
3,RRIRRRPPRLPRPRPRPHSKPRP,-0.198
4,RRIRWRPPRLPRPRPRPFMRPRP,0.276
5,RRIRFRPPRLPRPRPRPDRLPRP,0.147
6,RRIRMRPPRLPRPRPRPLYYPRP,-0.53
7,RRIRSRPPRLPRPRPRPACAPRP,0.482
8,RRIRKRPPRLPRPRPRPFCPPRP,0.0562
9,RRIRWRPPRLPRPRPRPWILPRP,-0.19
10,RRIRKRPPRLPRPRPRPHYEPRP,-0.0316
11,RRIRVRPPRLPRPRPRPAMVPRP,0.118
12,RRIRYRPPRLPRPRPRPNEKPRP,-0.0256
13,RRIRIRPPRLPRPRPRPFWTPRP,-0.353
14,RRIRSRPPRLPRPRPRPLCCPRP,0.473
15,RRIRKRPPRLPRPRPRPFMQPRP,-0.0285
16,RRIRERPPRLPRPRPRPPTHPRP,0.0517
17,RRIRQRPPRLPRPRPRPKVGPRP,0.011
18,RRIRERPPRLPRPRPRPSPMPRP,-0.0654
19,RRIRRRPPRLPRPRPRPMDHPRP,-0.0417
20,RRIRKRPPRLPRPRPRPTWAPRP,0.0687
21,RRIRSRPPRLPRPRPRPYTIPRP,-0.808
22,RRIRRRPPRLPRPRPRPYQFPRP,0.0273

row,Sequence,shrunken log2 fold change
1,RRIRPRPPRLPRPRPRPPNAPRP,0.435
2,RRIRQRPPRLPRPRPRPMRIPRP,-0.0249
3,RRIRKRPPRLPRPRPRPRMKPRP,0.346
4,RRIRSRPPRLPRPRPRPFNVPRP,-0.343
5,RRIRQRPPRLPRPRPRPWGCPRP,-0.122
6,RRIRTRPPRLPRPRPRPDSDPRP,-0.65
7,RRIRPRPPRLPRPRPRPYMIPRP,-0.398
8,RRIRMRPPRLPRPRPRPGNEPRP,1.05
9,RRIRPRPPRLPRPRPRPMTCPRP,-0.251
10,RRIRARPPRLPRPRPRPGEVPRP,0.935
11,RRIRPRPPRLPRPRPRPCYTPRP,-0.531
12,RRIRNRPPRLPRPRPRPQLCPRP,-0.00259
13,RRIRSRPPRLPRPRPRPLFRPRP,-0.368
14,RRIRGRPPRLPRPRPRPFSAPRP,0.0503
15,RRIRVRPPRLPRPRPRPMCQPRP,-0.0733
16,RRIRRRPPRLPRPRPRPHVNPRP,-0.0608
17,RRIRYRPPRLPRPRPRPDQHPRP,-0.13
18,RRIRYRPPRLPRPRPRPFMWPRP,-0.307
19,RRIRVRPPRLPRPRPRPNKHPRP,-0.189
20,RRIRHRPPRLPRPRPRPMLWPRP,0.0253
21,RRIRTRPPRLPRPRPRPIETPRP,0.108
22,RRIRARPPRLPRPRPRPEEQPRP,1.97

row,Sequence,shrunken log2 fold change
1,RRIRRRPPRLPRPRPRPCPKPRP,-0.0745
2,RRIRFRPPRLPRPRPRPEDRPRP,0.045
3,RRIRWRPPRLPRPRPRPSKYPRP,-0.632
4,RRIRRRPPRLPRPRPRPNEYPRP,-0.123
5,RRIRLRPPRLPRPRPRPASYPRP,-0.308
6,RRIRYRPPRLPRPRPRPKLFPRP,-0.0593
7,RRIRNRPPRLPRPRPRPAFDPRP,0.235
8,RRIRCRPPRLPRPRPRPVGYPRP,0.0595
9,RRIRERPPRLPRPRPRPEALPRP,0.0535
10,RRIRWRPPRLPRPRPRPPYDPRP,-0.0917
11,RRIRARPPRLPRPRPRPELYPRP,0.428
12,RRIRRRPPRLPRPRPRPAFRPRP,0.311
13,RRIRTRPPRLPRPRPRPHRHPRP,-0.211
14,RRIRQRPPRLPRPRPRPPSIPRP,-0.0422
15,RRIRVRPPRLPRPRPRPRKTPRP,0.0951
16,RRIRTRPPRLPRPRPRPGKPPRP,0.0978
17,RRIRMRPPRLPRPRPRPFCLPRP,-0.15
18,RRIRYRPPRLPRPRPRPQFNPRP,-0.755
19,RRIRDRPPRLPRPRPRPYHHPRP,-0.0229
20,RRIRTRPPRLPRPRPRPQHMPRP,-0.518
21,RRIRSRPPRLPRPRPRPAVCPRP,0.185
22,RRIRLRPPRLPRPRPRPNYKPRP,-0.752

row,Sequence,shrunken log2 fold change
1,RRIRDRPPRLPRPRPRPEGHPRP,-0.0429
2,RRIRKRPPRLPRPRPRPDFVPRP,0.0472
3,RRIRTRPPRLPRPRPRPYCSPRP,-0.858
4,RRIRRRPPRLPRPRPRPHAYPRP,-0.394
5,RRIRNRPPRLPRPRPRPVCEPRP,1.34
6,RRIRWRPPRLPRPRPRPTNQPRP,0.018
7,RRIRRRPPRLPRPRPRPDNGPRP,-0.0214
8,RRIRGRPPRLPRPRPRPDLHPRP,0.655
9,RRIRTRPPRLPRPRPRPKHMPRP,-0.081
10,RRIRTRPPRLPRPRPRPCGNPRP,-0.0693
11,RRIRKRPPRLPRPRPRPEFMPRP,0.541
12,RRIRCRPPRLPRPRPRPWEPPRP,-0.00185
13,RRIRTRPPRLPRPRPRPLCAPRP,0.0615
14,RRIRTRPPRLPRPRPRPFVSPRP,0.00713
15,RRIRERPPRLPRPRPRPWRQPRP,-0.00951
16,RRIRTRPPRLPRPRPRPLMMPRP,-0.314
17,RRIRARPPRLPRPRPRPDMIPRP,-0.0395
18,RRIRHRPPRLPRPRPRPGAWPRP,0.265
19,RRIRYRPPRLPRPRPRPHDRPRP,0.0039
20,RRIRGRPPRLPRPRPRPSERPRP,0.278
21,RRIRDRPPRLPRPRPRPDWFPRP,-0.0209
22,RRIRIRPPRLPRPRPRPNWNPRP,-0.388

row,Sequence,shrunken log2 fold change
1,RRIRKRPPRLPRPRPRPDDAPRP,1.47
2,RRIRFRPPRLPRPRPRPTTVPRP,-0.132
3,RRIRKRPPRLPRPRPRPDMNPRP,0.375
4,RRIRVRPPRLPRPRPRPVEVPRP,-0.0382
5,RRIRLRPPRLPRPRPRPFDIPRP,-0.0171
6,RRIRDRPPRLPRPRPRPFQQPRP,-0.0599
7,RRIRMRPPRLPRPRPRPKHEPRP,0.767
8,RRIRDRPPRLPRPRPRPRCAPRP,0.885
9,RRIRTRPPRLPRPRPRPPQNPRP,0.329
10,RRIRKRPPRLPRPRPRPFFQPRP,0.346
11,RRIRFRPPRLPRPRPRPCRLPRP,-0.209
12,RRIRWRPPRLPRPRPRPRSWPRP,1.07
13,RRIRGRPPRLPRPRPRPNSFPRP,-0.0356
14,RRIRDRPPRLPRPRPRPSADPRP,0.368
15,RRIRTRPPRLPRPRPRPCTCPRP,-0.00101
16,RRIRIRPPRLPRPRPRPWQDPRP,-0.0109
17,RRIRTRPPRLPRPRPRPKMRPRP,0.0419
18,RRIRKRPPRLPRPRPRPCPYPRP,0.151
19,RRIRHRPPRLPRPRPRPQHAPRP,0.0729
20,RRIRCRPPRLPRPRPRPPAYPRP,0.176
21,RRIRFRPPRLPRPRPRPCVSPRP,-0.0323

# Source: the supplement of paper PMC9112550, “Optimization of the antimicrobial peptide Bac7 by deep mutational scanning” (BMC Biology, 2022)
